Experimental data reported in article PMC10786891, “Massively parallel profiling of RNA-targeting CRISPR-Cas13d”.
Substitutions are numbered along the chain they refer to. Names and notes keep the numbering of the source.

T1: EsCas13d, nuclease-dead (Eubacterium siraeum, UniProt B0MS50, R295A;H300A;R849A;H854A)
T1 sequence: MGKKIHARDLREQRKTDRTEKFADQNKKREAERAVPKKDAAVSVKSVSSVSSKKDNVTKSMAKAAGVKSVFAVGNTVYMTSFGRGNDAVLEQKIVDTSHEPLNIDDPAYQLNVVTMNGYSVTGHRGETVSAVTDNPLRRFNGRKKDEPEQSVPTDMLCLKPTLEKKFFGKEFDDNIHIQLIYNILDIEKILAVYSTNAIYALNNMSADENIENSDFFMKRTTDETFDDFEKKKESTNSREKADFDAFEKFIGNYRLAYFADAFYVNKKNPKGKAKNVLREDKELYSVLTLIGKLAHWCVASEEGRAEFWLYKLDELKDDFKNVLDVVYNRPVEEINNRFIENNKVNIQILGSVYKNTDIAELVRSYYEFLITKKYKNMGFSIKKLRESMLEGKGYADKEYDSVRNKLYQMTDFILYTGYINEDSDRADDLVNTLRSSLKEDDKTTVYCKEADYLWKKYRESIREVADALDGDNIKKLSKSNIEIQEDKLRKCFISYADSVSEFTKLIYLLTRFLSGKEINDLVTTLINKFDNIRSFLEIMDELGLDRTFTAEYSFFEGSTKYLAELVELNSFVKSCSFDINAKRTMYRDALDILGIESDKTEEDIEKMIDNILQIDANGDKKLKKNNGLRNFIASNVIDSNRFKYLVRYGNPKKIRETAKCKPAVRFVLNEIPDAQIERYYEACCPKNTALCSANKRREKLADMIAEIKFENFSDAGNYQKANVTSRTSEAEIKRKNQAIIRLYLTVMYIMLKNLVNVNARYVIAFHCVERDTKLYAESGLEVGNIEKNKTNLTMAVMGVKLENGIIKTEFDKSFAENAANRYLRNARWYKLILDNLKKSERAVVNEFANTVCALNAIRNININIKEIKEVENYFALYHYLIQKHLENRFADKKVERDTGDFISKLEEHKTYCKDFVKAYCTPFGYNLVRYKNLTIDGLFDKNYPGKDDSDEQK

B1: target 1 C4U,A20C (mixed)
RNA 1: CACCCGUGCAAAAAUGCAGGGGUCUAAAACUGAGCGGAUAACCUCUCUAUGG
RNA 2: GGGAAUGGAUCCACAUCUACGAAUUCGUACCCUAGAGAGGUUAUCCGUUCACCGAGAUCGGAAGAGCACACGU
B2: target 1 G5A,C7A (mixed)
RNA 1: B1 RNA 1
RNA 2: B1 RNA 2 with C32A, C45A, G47A, U48C
B3: target 1 G12U,A20U (mixed)
RNA 1: B1 RNA 1
RNA 2: B1 RNA 2 with C32U, G40U, U48C
B4: target 1 C7U,A18C (mixed)
RNA 1: B1 RNA 1
RNA 2: B1 RNA 2 with C32A, A34C, C45U, U48C
B5: target 1 A9C,G15A (mixed)
RNA 1: B1 RNA 1
RNA 2: B1 RNA 2 with C32A, G37A, A43C, U48C
B6: target 2 MT 5'PFS AAC 3'PFS CCG (mixed)
RNA 1: CACCCGUGCAAAAUUGCAGGGGUCUAAAACCUUCUCCAAAUUGUUUCAUCCU
RNA 2: GGGAAUGGAUCCACAUCUACGAAUUCAACAGGAUGAAACAAUUUGGAGAAGCCGAGAUCGGAAGAGCACACGU
B7: target 2 MT 5'PFS UAG 3'PFS CGG (mixed)
RNA 1: B6 RNA 1
RNA 2: B6 RNA 2 with A27U, C29G, C53G
B8: target 2 MT 5'PFS GCU 3'PFS ACG (mixed)
RNA 1: B6 RNA 1
RNA 2: B6 RNA 2 with A27G, A28C, C29U, C52A
B9: target 2 MT 5'PFS UCU 3'PFS AUG (mixed)
RNA 1: B6 RNA 1
RNA 2: B6 RNA 2 with A27U, A28C, C29U, C52A, C53U
B10: target 2 MT 5'PFS AGC 3'PFS UUA (mixed)
RNA 1: B6 RNA 1
RNA 2: B6 RNA 2 with A28G, C52U, C53U, G54A
B11: target 2 MT 5'PFS AUA 3'PFS UCC (mixed)
RNA 1: B6 RNA 1
RNA 2: B6 RNA 2 with A28U, C29A, C52U, G54C
B12: target 2 MT 5'PFS AUU 3'PFS AUC (mixed)
RNA 1: B6 RNA 1
RNA 2: B6 RNA 2 with A28U, C29U, C52A, C53U, G54C
B13: target 2 MT 5'PFS UAA 3'PFS CUA (mixed)
RNA 1: B6 RNA 1
RNA 2: B6 RNA 2 with A27U, C29A, C53U, G54A
B14: target 2 MT 5'PFS AUA 3'PFS UCU (mixed)
RNA 1: B6 RNA 1
RNA 2: B6 RNA 2 with A28U, C29A, C52U, G54U
B15: target 2 MT 5'PFS AGC 3'PFS UUU (mixed)
RNA 1: B6 RNA 1
RNA 2: B6 RNA 2 with A28G, C52U, C53U, G54U
B16: target 2 MT 5'PFS GAA 3'PFS UUC (mixed)
RNA 1: B6 RNA 1
RNA 2: B6 RNA 2 with A27G, C29A, C52U, C53U, G54C
B17: target 2 MT 5'PFS CGG 3'PFS ACG (mixed)
RNA 1: B6 RNA 1
RNA 2: B6 RNA 2 with A27C, A28G, C29G, C52A
B18: target 2 MT 5'PFS UUG 3'PFS UUU (mixed)
RNA 1: B6 RNA 1
RNA 2: B6 RNA 2 with A27U, A28U, C29G, C52U, C53U, G54U
B19: target 2 MT 5'PFS GCU 3'PFS ACA (mixed)
RNA 1: B6 RNA 1
RNA 2: B6 RNA 2 with A27G, A28C, C29U, C52A, G54A
B20: target 2 MT 5'PFS CGG 3'PFS ACU (mixed)
RNA 1: B6 RNA 1
RNA 2: B6 RNA 2 with A27C, A28G, C29G, C52A, G54U
B21: target 2 MT 5'PFS AUA 3'PFS UCA (mixed)
RNA 1: B6 RNA 1
RNA 2: B6 RNA 2 with A28U, C29A, C52U, G54A
B22: target 2 MT 5'PFS CAU 3'PFS ACG (mixed)
RNA 1: B6 RNA 1
RNA 2: B6 RNA 2 with A27C, C29U, C52A
B23: target 2 MT 5'PFS GCU 3'PFS ACU (mixed)
RNA 1: B6 RNA 1
RNA 2: B6 RNA 2 with A27G, A28C, C29U, C52A, G54U
B24: target 2 MT 5'PFS AGC 3'PFS UUG (mixed)
RNA 1: B6 RNA 1
RNA 2: B6 RNA 2 with A28G, C52U, C53U
B25: target 2 MT 5'PFS UCU 3'PFS AUC (mixed)
RNA 1: B6 RNA 1
RNA 2: B6 RNA 2 with A27U, A28C, C29U, C52A, C53U, G54C
B26: target 2 MT 5'PFS UAA 3'PFS CUG (mixed)
RNA 1: B6 RNA 1
RNA 2: B6 RNA 2 with A27U, C29A, C53U
B27: target 2 MT 5'PFS UAA 3'PFS CUC (mixed)
RNA 1: B6 RNA 1
RNA 2: B6 RNA 2 with A27U, C29A, C53U, G54C
B28: target 2 MT 5'PFS GCU 3'PFS ACC (mixed)
RNA 1: B6 RNA 1
RNA 2: B6 RNA 2 with A27G, A28C, C29U, C52A, G54C
B29: target 2 MT 5'PFS UAU 3'PFS CAU (mixed)
RNA 1: B6 RNA 1
RNA 2: B6 RNA 2 with A27U, C29U, C53A, G54U
B30: target 2 MT 5'PFS AUU 3'PFS AUA (mixed)
RNA 1: B6 RNA 1
RNA 2: B6 RNA 2 with A28U, C29U, C52A, C53U, G54A
B31: target 2 MT 5'PFS UUU 3'PFS AGA (mixed)
RNA 1: B6 RNA 1
RNA 2: B6 RNA 2 with A27U, A28U, C29U, C52A, C53G, G54A
B32: target 2 MT 5'PFS GUC 3'PFS AUU (mixed)
RNA 1: B6 RNA 1
RNA 2: B6 RNA 2 with A27G, A28U, C52A, C53U, G54U
B33: target 2 MT 5'PFS UAG 3'PFS CGA (mixed)
RNA 1: B6 RNA 1
RNA 2: B6 RNA 2 with A27U, C29G, C53G, G54A
B34: target 2 MT 5'PFS AUA 3'PFS UCG (mixed)
RNA 1: B6 RNA 1
RNA 2: B6 RNA 2 with A28U, C29A, C52U
B35: target 2 MT 5'PFS AGG 3'PFS CUA (mixed)
RNA 1: B6 RNA 1
RNA 2: B6 RNA 2 with A28G, C29G, C53U, G54A
B36: target 2 MT 5'PFS GCA 3'PFS AGU (mixed)
RNA 1: B6 RNA 1
RNA 2: B6 RNA 2 with A27G, A28C, C29A, C52A, C53G, G54U
B37: target 2 MT 5'PFS UAA 3'PFS CUU (mixed)
RNA 1: B6 RNA 1
RNA 2: B6 RNA 2 with A27U, C29A, C53U, G54U

Target: T1, EsCas13d, nuclease-dead
Assay: crRNA (strand 1, pre-loaded); Mg2+; 40 mM Tris-HCl pH 7.5, 150 mM NaCl, 6 mM MgCl2, 1 mM DTT, 0.1% Tween-20, 0.2 mg/ml BSA; 25 C; 10 min per concentration, then washed
Settings: tags: His6-TwinStrep-SUMO cleaved; N-terminal SNAP kept (SNAP-Surface 488); label: 3' end held by stalled T7 RNA polymerase

Binder | Kd [nM]
B1 | ~90
B2 | 10.3 ± 0.6
B3 | 27.5 ± 2.3
B4 | 55 ± 5
B5 | 35 ± 5
B6 | 5.9 ± 0.6
B7 | 2.89 ± 0.35
B8 | 14.6 ± 1.4
B9 | 8.3 ± 1.5
B10 | 10.9 ± 2.4
B11 | 15.6 ± 2.1
B12 | 9.5 ± 1
B13 | 4.6 ± 0.5
B14 | 33 ± 15
B15 | 20 ± 4
B16 | ~70
B17 | 4.05 ± 0.24
B18 | 25.5 ± 3.3
B19 | 15 ± 4

Binder | Kd [nM]
B20 | 6.8 ± 1.1
B21 | 12.3 ± 2.6
B22 | 7.9 ± 2.5
B23 | 23 ± 4
B24 | 10.6 ± 1.4
B25 | 7.3 ± 1
B26 | 6.2 ± 1.1
B27 | 6.7 ± 0.9
B28 | ~30
B29 | 24.1 ± 2.7
B30 | 5.3 ± 0.4
B31 | 7.3 ± 0.8
B32 | 11.2 ± 1.3
B33 | 2.55 ± 0.33
B34 | 20 ± 6
B35 | 6.7 ± 1.1
B36 | 28 ± 10
B37 | 6.9 ± 1.5
